From CN117736324A (BEIJING DONGFANG BIOTECH CO LTD; BEIJING JINGYI TAIXIANG …, dated 2024) come the findings set out here.

The target in experiment [1] is T1, 人Siglec-15抗原 (Siglec-15蛋白胞外段) (human, UniProt Q6ZMC9 20-263).
T1 construct: extracellular domain
T1 sequence (looked up): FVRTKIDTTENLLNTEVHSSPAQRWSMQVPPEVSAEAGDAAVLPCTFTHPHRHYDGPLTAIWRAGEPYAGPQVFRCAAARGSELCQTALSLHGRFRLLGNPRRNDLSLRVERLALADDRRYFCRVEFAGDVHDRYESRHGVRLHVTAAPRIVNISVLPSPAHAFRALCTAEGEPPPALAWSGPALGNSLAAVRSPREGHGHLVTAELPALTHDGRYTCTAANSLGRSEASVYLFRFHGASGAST
Description: ELISA, Siglec-15 coated, Goat Anti-Mouse IgG-HRP detection. For orientation: An ELISA detects its analyte on a solid surface through an enzyme-linked reagent.

Experiment [2] addresses T1, 人Siglec-15抗原 (Siglec-15蛋白胞外段). In words: ELISA, Siglec-15 coated, Goat Anti Human IgG-HRP detection.
For experiment [3] the target is unchanged. In words: phage supernatant ELISA, screening of single clones.

B1: MA-I 鼠源抗Siglec-15单克隆抗体 (mouse IgG1/Ck) (antibody)
heavy: EVKLEQSGPELVKPGASVKISCKASGYTFTDYNMFWVKQSHGKTLEWIGYIYPDNGGTGYNQNFKSKATLTVDNSSSSAYMELRSLTSEDSAVYYCARSEYDYFDYWGQGTTLTVSSAKTTPPSVYPLAPGSAAQTNSMVTLGCLVKGYFPEPVTVTWNSGSLSSGVHTFPAVLQSDLYTLSSSVTVPSSTWPSETVTCNVAHPASSTKVDKKIVPRDCGCKPCICTVPEVSSVFIFPPKPKDVLTITLTPKVTCVVVDISKDDPEVQFSWFVDDVEVHTAQTQPREEQFNSTFRSVSELPIMHQDWLNGKEFKCRVNSAAFPAPIEKTISKTKGRPKAPQVYTIPPPKEQMAKDKVSLTCMITDFFPEDITVEWQWNGQPAENYKNTQPIMDTDGSYFVYSKLNVQKSNWEAGNTFTCSVLHEGLHNHHTEKSLSHSPG
light: DIVLTQSTSSLSASLGDRVTISCRASQDISNYLNWYQQKPDGTVKLLIYYTSRLHSGVPSRFSGSGSGTDYSLTISNLEQEDIATYFCQQGNTLPLTFGAGTKLELKADAAPTVSIFPPSSEQLTSGGASVVCFLNNFYPKDINVKWKIDGSERQNGVLNSWTDQDSKDSTYSMSSTLTLTKDEYERHNSYTCEATHKTSTSPIVKSFNRNEC
notes: also called MA-1; 鼠源抗体分子
With B1, the binding result in experiment [1] is “binds”.

B2: 人源化抗体分子HA-II (human IgG1/Ck) (antibody, V domains shown)
VH: QVQLVQSGAEVKKPGASVKVSCKASGYTFTDYNMFWVRQAPGQRLEWIGYIYPDNGGTGYNQNFKSKATLTVDNSASTAYMELSSLRSEDTAVYYCARSEYDYFDYWGQGTLVTVSS
VL: DIQLTQSPSSLSASVGDRVTITCRASQDISNYLNWYQQKPGKAPKLLIYYTSRLHSGVPSRFSGSGSGTDYTFTISSLQPEDIATYFCQQGNTLPLTFGQGTKVELKR
notes: also called HA-Ⅱ
Consider B2, for which the binding result in experiment [2] is “binds”.

B3: MA-II 鼠源抗Siglec-15单克隆抗体 (mouse IgG1/Ck) (antibody, V domains shown)
VH: EVKLEQSGGGLVKPGGSLKLSCAASGFTFSSYAMSWVRQSPEKRLEWVAEIISGGSHTYYPDTVTGRFTISRDDAKNTLYLEMSSLRSEDTAMYYCARDGNYGYAMDYWGQGTSVTVSS
VL: DIVITQTPAIMSASPGEKVTMTCRASSSVSSSYLHWYQQKSGASPKLWIYSTSNLASGVPARFSGGGSGTSYSLTISSVEAEDDATYYCQQWSGYPWTFGGGTKLEIKA
notes: also called 鼠源抗体分子
For B3, the binding result in experiment [1] is listed as “binds”.

B4: MA-II 噬菌体单克隆抗体 (phage-displayed scFv) (scFv, V domains shown)
VH: EVKLEQSGGGLVKPGGSLKLSCAASGFTFSSYAMSWVRQSPEKRLEWVAEIISGGSHTYYPDTVTGRFTISRDDAKNTLYLEMSSLRSEDTAMYYCARDGNYGYAMDYWGQGTSVTVSS
VL: DIVITQTPAIMSASPGEKVTMTCRASSSVSSSYLHWYQQKSGASPKLWIYSTSNLASGVPARFSGGGSGTSYSLTISSVEAEDDATYYCQQWSGYPWTFGGGTKLEIK
notes: also called 抗Siglec-15噬菌体单克隆抗体
In the case of B4, the binding result in experiment [3] was “binds”.

B5: MA-IV 鼠源抗Siglec-15单克隆抗体 (mouse IgG1/Ck) (antibody, V domains shown)
VH: EVKLQESGAELVKPGASVKLSCIASGFNIKDTFIHWVKQRPEQGLEWIGRIDPASGYTKYDPKFQGKATITTDTSSNTAYLQLSSLTSEDTAVYYCTRSGSYVSFVYWGQGTLVTVSA
VL: DIVMTQTPASLAVSLGQRATISCKASQSVDYDGDSYMNWYQQKPGQPPKLLIYAASNLESGIPARFSGSGSGTDFTLNIHPVEEEDAATYYCQQSNEDPWTFGGGTKLEIKA
notes: also called 鼠源抗体分子
As to B5, the binding result in experiment [1] was “binds”.

B6: MA-IV 噬菌体单克隆抗体 (phage-displayed scFv) (scFv, V domains shown)
VH: EVKLQESGAELVKPGASVKLSCIASGFNIKDTFIHWVKQRPEQGLEWIGRIDPASGYTKYDPKFQGKATITTDTSSNTAYLQLSSLTSEDTAVYYCTRSGSYVSFVYWGQGTLVTVSA
VL: DIVMTQTPASLAVSLGQRATISCKASQSVDYDGDSYMNWYQQKPGQPPKLLIYAASNLESGIPARFSGSGSGTDFTLNIHPVEEEDAATYYCQQSNEDPWTFGGGTKLEIK
notes: as for B4
As to B6, the binding result in experiment [3] is “binds”.

B7: 嵌合抗体CA-I (antibody, human IgG1, kappa, L234A L235A)
heavy: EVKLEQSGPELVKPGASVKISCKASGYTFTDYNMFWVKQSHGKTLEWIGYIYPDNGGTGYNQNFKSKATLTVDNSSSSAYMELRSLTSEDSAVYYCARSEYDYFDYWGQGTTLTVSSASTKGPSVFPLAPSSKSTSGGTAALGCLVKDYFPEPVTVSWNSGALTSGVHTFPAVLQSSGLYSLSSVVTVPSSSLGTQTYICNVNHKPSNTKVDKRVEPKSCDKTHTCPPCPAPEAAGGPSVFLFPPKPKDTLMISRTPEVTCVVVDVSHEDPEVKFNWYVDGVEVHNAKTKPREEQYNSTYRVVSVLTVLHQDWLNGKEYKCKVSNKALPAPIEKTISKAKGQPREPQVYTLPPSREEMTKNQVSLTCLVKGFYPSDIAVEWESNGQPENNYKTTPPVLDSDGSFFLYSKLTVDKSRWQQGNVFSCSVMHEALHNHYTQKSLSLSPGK
light: DIVLTQSTSSLSASLGDRVTISCRASQDISNYLNWYQQKPDGTVKLLIYYTSRLHSGVPSRFSGSGSGTDYSLTISNLEQEDIATYFCQQGNTLPLTFGAGTKLELKRTVAAPSVFIFPPSDEQLKSGTASVVCLLNNFYPREAKVQWKVDNALQSGNSQESVTEQDSKDSTYSLSSTLTLSKADYEKHKVYACEVTHQGLSSPVTKSFNRGEC
For the molecule B7, in experiment [2], the binding result was “binds”.

B8: MA-I 噬菌体单克隆抗体 (phage-displayed scFv) (scFv, V domains shown)
VH: EVKLEQSGPELVKPGASVKISCKASGYTFTDYNMFWVKQSHGKTLEWIGYIYPDNGGTGYNQNFKSKATLTVDNSSSSAYMELRSLTSEDSAVYYCARSEYDYFDYWGQGTTLTVSS
VL: DIVLTQSTSSLSASLGDRVTISCRASQDISNYLNWYQQKPDGTVKLLIYYTSRLHSGVPSRFSGSGSGTDYSLTISNLEQEDIATYFCQQGNTLPLTFGAGTKLELK
notes: as for B4
For B8, in experiment [3], the binding result is given as “binds”.

B9: MA-III 鼠源抗Siglec-15单克隆抗体 (mouse IgG1/Ck) (antibody, V domains shown)
VH: QVKLEESGPELVKPGASVKMSCKASGYIFTSYVMHWVRQKPGQGLEWIGYIDPYNDRTKYNEKFKGKATLTSDKSSSTAYMELSSLTSEDSAVYYCARSGDYGSSFDYWGQGTTLTVSS
VL: DIVMTQSPSSLSASLGERVSLTCRASQEISGYLSWLQQKPDGTIKRLIYAASTLDSGVPKRFSGSRSGSDYSLTISSLESEDFADYYCLQYASYPYTFGGGTKLEIKA
notes: also called 鼠源抗体分子
For B9, in experiment [1], the binding result is on record as “binds”.

B10: MA-III 噬菌体单克隆抗体 (phage-displayed scFv) (scFv, V domains shown)
VH: QVKLEESGPELVKPGASVKMSCKASGYIFTSYVMHWVRQKPGQGLEWIGYIDPYNDRTKYNEKFKGKATLTSDKSSSTAYMELSSLTSEDSAVYYCARSGDYGSSFDYWGQGTTLTVSS
VL: DIVMTQSPSSLSASLGERVSLTCRASQEISGYLSWLQQKPDGTIKRLIYAASTLDSGVPKRFSGSRSGSDYSLTISSLESEDFADYYCLQYASYPYTFGGGTKLEIK
notes: as for B4
Take B10: the binding result in experiment [3] is given as “binds”.
